Laboratory results taken from article PMC3206844.

Tests used:
[1] = molecular target: Visinin-like Protein 1 (VILIP-1), unmyristoylated (human) (UniProt P62760); test: SEC; Sephadex 200 column, 100 mM NaCl, 20 mM HEPES pH 7.5, 0.5 mL/min; samples with 0.1 mM EDTA or 5 mM CaCl2, non-reduced or reduced with 2.5 mM DTT; monomer and dimer peaks
[2] = molecular target: Visinin-like Protein 1 (VILIP-1), unmyristoylated (human) (UniProt P62760); test: small-angle X-ray scattering (SAXS); 12 mg/mL (542 uM) VILIP-1, 100 mM NaCl, 5 mM CaCl2, 2.5 mM DTT, 20 mM HEPES pH 7.5, 20 °C; mass from forward scattering, ab initio shape

Visinin-like Protein 1 (VILIP-1), unmyristoylated (from UniProt P62760 1-191) (natural protein)
stoichiometry N [1]: 2
stoichiometry N [2]: 2
